Laboratory results taken from patent publication US20170298146A1 (MODIQUEST B V, published 2017).

Legend:
Experiment in all cases: ELISA, 2 ug/well
[1] = biological target: T1, human recombinant histone H2A (human)
T1 construct: Non-deiminated
Protocol: (§1) CFC-1 and CFC-0 were coated at the same concentration and served as positive and negative controls, respectively, for specific anti-citrulline reactivity and as coating controls. Non-coated wells were used to test for aspecific binding of the antibodies. […] Detection of bound anti-citrulline antibodies was performed by incubating the wells with rabbit-anti-human-HRP (1:2000) for one hour at RT followed by incubation with TMB substrate. The resulting OD (y-axis) is a measure for antibody binding. H1=recombinant histone 1; H1/p2=huPAD2 recombinant histone 1; H1/p4=huPAD4 recombinant histone 1 and so forth (x-axis).

[2] = biological target: T2, huPAD2 deiminated human recombinant histone H2A (human)
T2 construct: also called H2A/p2
Protocol: as §1

[3] = biological target: T3, huPAD4 deiminated human recombinant histone H2A (human)
T3 construct: also called H2A/p4; huPAD4 deiminated histone 2A
Protocol: as §1

[4] = biological target: T4, human recombinant histone H2B (human)
T4 construct: Non-deiminated
Protocol: as §1

[5] = biological target: T5, huPAD2 deiminated human recombinant histone H2B (human)
T5 construct: also called H2B/p2
Protocol: as §1

[6] = biological target: T6, huPAD4 deiminated human recombinant histone H2B (human)
T6 construct: also called H2B/p4
Protocol: as §1

[7] = biological target: T7, huPAD2 deiminated human recombinant histone H3 (human)
T7 construct: also called H3/p2
Protocol: as §1

[8] = biological target: T8, huPAD4 deiminated human recombinant histone H3 (human)
T8 construct: also called H3/p4
Protocol: as §1

[9] = biological target: human recombinant histone H4 (human, UniProt P62805 2-103)
Protocol: as §1

CFC-1 = biological target: T9, CFC-1
T9 construct: Positive control for anti-citrulline reactivity; also called cfc1 XG
Protocol: as §1

B1: RhmAb2.102 (antibody, human IgG1, lambda)
heavy: not shown
light: QSVLTQPPSMSAAPGQKVTISCSGSSSNIGNNYVSWYQQVPGTAPKLLIYDDNKRPSGIPGRFSGSKSATSATLGITGLQAGDEADYYCGSWDDNLSVVLFGGGTKLTVLGQPKAAPSVTLFPPSSEELQANKATLVCLISDFYPGAVTVAWKADSSPVKAGVETTTPSKQSNNKYAASSYLSLTPEQWKSHRSYSCQVTHEGSTVEKTVAPTECS
notes: Human IgG1 lambda; also called Rhm2.102
With B1 the OD [1] was 0.115 OD, the OD [2] was 3.18 OD and the OD [3] was 3.13 OD. For the same binder, the OD [4] was 0.076 OD, the OD [5] was 0.086 OD and the OD [6] was 0.069 OD. For the same binder, the OD [7] was 1.94 OD, the OD [8] was 0.439 OD and the OD [9] was 0.208 OD. The OD (CFC-1) was 3.38 OD.
